Assay results: patent US20250236642A1, “PHARMACEUTICAL COMPOSITION FOR TREATMENT OR PREVENTION OF ADULT T-CELL LEUKEMIA” (NEC Corporation, priority 2022, published 2025)

biological target: HLA-A*24:02 molecule; assay: flow cytometry, C1R-A24 cells; settings: not given

Binder YQLSPPITW (modifications not checked) [peptide of SEQ ID NO: 32] has a -log Kd value of -5.76.

biological target: HLA-A*24:02 molecule; assay: flow cytometry, C1R-A24 cells; settings: not given; remark: another data set of the same source

In order of falling -log Kd value:
1. ALQFLIPRL (modifications not checked) [peptide of SEQ ID NO: 22]  -4.96
2. ALQPPCPNL (modifications not checked) [peptide of SEQ ID NO: 31]  -5.31
3. IALETPVWI (modifications not checked) [peptide of SEQ ID NO: 20]  -5.48
4. IQYSSFHNL (modifications not checked) [peptide of SEQ ID NO: 21]  -6.53
5. ALPAPHLTL (modifications not checked) [peptide of SEQ ID NO: 18]  -6.73
6. YQLSPPITW (modifications not checked) [peptide of SEQ ID NO: 32]  -6.76

same assay, conditions: remark: other sources report otherwise

YPGWHSTTI [peptide of SEQ ID NO: 52] was tested, and the -log Kd value was -5.66.

biological target: HLA-A*02:06 molecule; assay: flow cytometry, RA2.6 cells; settings: not given

Compared with ETLQFIDSM [peptide of SEQ ID NO: 53], KFLEAFHEV [peptide of SEQ ID NO: 8] is lower in -log Kd value: -3.37 for the first, -5.81 for the second.

Going from LLNPNRQTI [peptide of SEQ ID NO: 23] to LMITRKSFI [peptide of SEQ ID NO: 17], the -log Kd value falls from -3.53 to -4.53.

Compared with STGESAQTS [peptide of SEQ ID NO: 71], LAEEHGATL [peptide of SEQ ID NO: 61] is lower in -log Kd value: greater than -3 for the first, -4.5 for the second.

First: ATAPPTAQL [peptide of SEQ ID NO: 25]
Second: LIITRKSFI [peptide of SEQ ID NO: 29]
The -log Kd value of the first is lower: -6.16 for the first, -3.64 for the second.

SLPNEKQTS [peptide of SEQ ID NO: 69] and THLDAGTVE [peptide of SEQ ID NO: 75] cannot be ordered by -log Kd value: greater than -3 for the first, greater than -3 for the second.

ASPSHMTSM [peptide of SEQ ID NO: 81] and YFFTVIFSF [peptide of SEQ ID NO: 44] cannot be ordered by -log Kd value: greater than -3 for the first, greater than -4.4 for the second.

First: YLYDPPTTI [peptide of SEQ ID NO: 4]
Second: YVYDPPTTI [peptide of SEQ ID NO: 2]
The -log Kd value of the first is lower: -5.87 for the first, -5.55 for the second.

First: GTHLDAGTV [peptide of SEQ ID NO: 51]
Second: LIEEHGATL [peptide of SEQ ID NO: 40]
The -log Kd value of the first is higher: -3.66 for the first, -4.81 for the second.

Compared with LHEEHGATL [peptide of SEQ ID NO: 79], ALPKIRARV [peptide of SEQ ID NO: 12] is lower in -log Kd value: greater than -3 for the first, -4.78 for the second.

First: ALAPPTAQL [peptide of SEQ ID NO: 6]
Second: LPPARHSTI [peptide of SEQ ID NO: 76]
The -log Kd value of the first is lower: -6.41 for the first, greater than -3 for the second.

Going from LTITRKSFI [peptide of SEQ ID NO: 45] to AQAPPTAQL [peptide of SEQ ID NO: 5], the -log Kd value falls from -3.79 to -5.85.

First: LMEEHGATL [peptide of SEQ ID NO: 13]
Second: ATLAPAVLL [peptide of SEQ ID NO: 10]
The -log Kd value of the first is higher: -5.68 for the first, -6.12 for the second.

Going from ISAYRTCWI [peptide of SEQ ID NO: 34] to LVEEHGATL [peptide of SEQ ID NO: 43], the -log Kd value falls from -3.14 to -4.86.

Compared with LLITRKSFI [peptide of SEQ ID NO: 16], LLEEHGATL [peptide of SEQ ID NO: 41] is lower in -log Kd value: -4.63 for the first, -5.3 for the second.

Going from GSPDEFSND [peptide of SEQ ID NO: 72] to LLLFSAAAL [peptide of SEQ ID NO: 1], the -log Kd value falls from greater than -3 to -4.96.

Compared with GILSDHQQS [peptide of SEQ ID NO: 74], EAIDGYITL [peptide of SEQ ID NO: 47] is lower in -log Kd value: greater than -3 for the first, -4.72 for the second.

First: ALRPAPALL [peptide of SEQ ID NO: 26]
Second: CMIVHQGTI [peptide of SEQ ID NO: 36]
The -log Kd value of the first is higher: greater than -3.37 for the first, -4.37 for the second.

Compared with CIDEHQWQL [peptide of SEQ ID NO: 28], VMQIDGVQP [peptide of SEQ ID NO: 67] is higher in -log Kd value: -5.25 for the first, -3.41 for the second.

Compared with LVITRKSFI [peptide of SEQ ID NO: 30], MLPQTPSHL [peptide of SEQ ID NO: 24] is lower in -log Kd value: -3.61 for the first, -3.96 for the second.

First: LTEEHGATL [peptide of SEQ ID NO: 42]
Second: VMSHHGEKL [peptide of SEQ ID NO: 19]
The -log Kd value of the first is lower: -4.92 for the first, -4.3 for the second.

IFADVSSST [peptide of SEQ ID NO: 78] and ILSDHQQSQ [peptide of SEQ ID NO: 70] cannot be ordered by -log Kd value: greater than -3 for the first, greater than -3 for the second.

Going from FSNDFGQSL [peptide of SEQ ID NO: 35] to GYITLGKPH [peptide of SEQ ID NO: 80], the -log Kd value rises from -4.71 to greater than -3.

First: CTDEHQWQL [peptide of SEQ ID NO: 39]
Second: VLLQQFQTA [peptide of SEQ ID NO: 15]
The -log Kd value of the first is lower: -6.8 for the first, -5.47 for the second.

Going from SSFEFFEEA [peptide of SEQ ID NO: 37] to YTYDPPTTI [peptide of SEQ ID NO: 3], the -log Kd value rises from -7.42 to -6.17.

First: SLVLTWAAL [peptide of SEQ ID NO: 14]
Second: SPDEFSNDF [peptide of SEQ ID NO: 73]
The -log Kd value of the first is lower: -6.24 for the first, greater than -3 for the second.

Going from ARHSTIPLV [peptide of SEQ ID NO: 77] to LAITRKSFI [peptide of SEQ ID NO: 46], the -log Kd value falls from greater than -3 to -3.04.

With AQISAYRTC [peptide of SEQ ID NO: 50] the -log Kd value was -4.09.

biological target: HLA-A*02:01 molecule; assay: flow cytometry, T2 cells; settings: not given

In order of falling -log Kd value:
1. YQLSPPITW (modifications not checked) [peptide of SEQ ID NO: 32]  -3.46
2. IALETPVWI (modifications not checked) [peptide of SEQ ID NO: 20]  -5.11
3. ALQPPCPNL (modifications not checked) [peptide of SEQ ID NO: 31]  -5.13
4. IQYSSFHNL (modifications not checked) [peptide of SEQ ID NO: 21]  -5.29
5. ALQFLIPRL (modifications not checked) [peptide of SEQ ID NO: 22]  -5.9
6. ALPAPHLTL (modifications not checked) [peptide of SEQ ID NO: 18]  -5.99

biological target: HLA-A*02:06 molecule; assay: flow cytometry, RA2.6 cells; settings: not given; remark: another data set of the same source

Work on YTYDPPTTI [peptide of SEQ ID NO: 3] yielded a -log Kd value of -5.17.

biological target: HLA-A*02:01 molecule; assay: flow cytometry, T2 cells; settings: not given; remark: another data set of the same source

YQLSPPITW (modifications not checked) [peptide of SEQ ID NO: 32] showed a -log Kd value of -3.46.
